Results taken from publication PMC12312386, “Multiple transactivation domains of EZH2 bind to the TAZ2 domain of p300 and stimulate the acetyltransferase function of p300” (Biochemical Journal, 2025).
Several values for one entry are separate records, joined by “and”; a condition that tells them apart may be missing. Identical values can stand only once.

T1: GST-p300_(TAZ2) (human, UniProt Q09472 1722-1812, tryptophan substituted at A1723)
T1 construct: TAZ2 domain of human p300, aa 1722-1812, with a tryptophan substituted at A1723; pGEX-4T-1 vector with an additional TEV cleavage site; Dimeric in mass photometry (~80 kDa); also called GST-fusion of p300 TAZ2; source: E. coli Rosetta-2 (DE3) pLysS, purified (glutathione agarose, cation exchange or heparin)
T1 sequence (looked up): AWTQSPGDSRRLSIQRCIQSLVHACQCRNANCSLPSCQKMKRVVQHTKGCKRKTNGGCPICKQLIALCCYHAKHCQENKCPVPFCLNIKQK

T2: GST-EZH2_(TAD1) (aa 142-160 of EZH2) (human, UniProt Q15910 142-160)
T2 construct: EZH2, human, aa 142-160, made by deletion from the aa 142-231 construct in pGEX-6P-1; Dimeric in mass photometry (~70 kDa); Limits differ from the synthetic EZH2_(TAD1) peptide (142-154); source: E. coli Rosetta-2 (DE3) pLysS, purified (glutathione agarose, Ni-NTA)
T2 chain (looked up): DGTFIEELIKNYDGKVHGD

B1: p300 TAZ2 domain, untagged (p300_(TAZ2)) (domain or fragment, human, UniProt Q09472 1722-1812, looked up)
chain: AWTQSPGDSRRLSIQRCIQSLVHACQCRNANCSLPSCQKMKRVVQHTKGCKRKTNGGCPICKQLIALCCYHAKHCQENKCPVPFCLNIKQK
notes: TAZ2 domain of human p300, aa 1722-1812, with a tryptophan substituted at A1723; Uniformly 15N-labeled for NMR, unlabeled in mass photometry; they are printed there only as p300_(TAZ2); also called 15N-labeled p300_(TAZ2); source: E. coli Rosetta-2 (DE3) pLysS, purified (glutathione agarose, TEV cleavage, cation exchange or heparin)

Assays:
Details in all cases: both partners purified
[1] = target: B1; test: NMR titration; 1H,15N HSQC of 50–100 μM 15N-labeled p300_(TAZ2), unlabeled peptide titrated; 298 K; 50 mM MES pH 6.5, 150 mM NaCl, 5 mM DTT
GST-p300_(TAZ2) = target: T1, GST-p300_(TAZ2); test: mass photometry; 20 nM GST-p300_(TAZ2) with EZH2_(TAD1-TAD2) (5 μM) or EZH2_(TAD1-TAD2-TAD3) (1 μM); room temperature; 50 mM Tris pH 7.5, 150 mM NaCl, 5 mM DTT
[2] = target: T2, GST-EZH2_(TAD1) (aa 142-160 of EZH2); test: mass photometry; 20 nM GST-EZH2_(TAD1) with p300_(TAZ2) (0.1 μM); room temperature; 50 mM Tris pH 7.5, 150 mM NaCl, 5 mM DTT

| binding result [1] | Binder | further results |
| --- | --- | --- |
| binds | SDKIFEAISSMF (peptide, UniProt Q15910 220-231, looked up, source: synthetic peptide (SynPeptide Co. Ltd.)) [EZH2_(TAD3) peptide (aa 220-231 of EZH2)] | – |
| binds | DGTFIEELIKNYD (peptide, UniProt Q15910 142-154, looked up, source: synthetic peptide (SynPeptide Co. Ltd.)) [EZH2_(TAD1) peptide (aa 142-154 of EZH2)] | – |
| – | EZH2_(TAD1-TAD2-TAD3) (aa 142-231 of EZH2) with C-terminal 6xHis tag (domain or fragment, EZH2, human, aa 142-231, holds TAD1, TAD2 and TAD3; pGEX-6P-1 vector; also called triple EZH2_(TAD1-TAD2-TAD3); source: E. coli Rosetta-2 (DE3) pLysS, purified (glutathione agarose, PreScission cleavage, Ni-NTA)) not shown | stoichiometry N (GST-p300_(TAZ2)): 6 GST-p300_(TAZ2) per EZH2_(TAD1-TAD2-TAD3) |
| binds | NDEIFVELVNALGQYNDDD (peptide, UniProt Q15910 167-185, looked up, source: synthetic peptide (SynPeptide Co. Ltd.)) [EZH2_(TAD2) peptide (aa 167-185 of EZH2)] | – |
| – | B1 | stoichiometry N [2]: 1 p300_(TAZ2) per GST-EZH2_(TAD1) dimer and 2 p300_(TAZ2) per GST-EZH2_(TAD1) dimer |
